According to patent US20220073643A1 (NANJING GENSCRIPT BIOTECH, published 2022):
Residue numbers refer to the chain shown, from its start.

B1: 252C10F6 (antibody, V domains shown)
VH: QVHLKQSGRGLVQPSQSLSITCTVSGFSLPNYGVHWVRQPPGKGLEWLGVIWSGGNTDYNTVFKARLSITKDNSKSQVFFKMNSLQADDTAIYYCARNLYGNYDYAMDYWGQGTSVTVSS
VL: DIVMTQSPATLSVTPGDRVSLSCRASQSISDYLHWYQQKSHESPRLLIKYASQSISGIPSRFSGSGSGSEFTLSINSVEPEDVGVYYCQNGHSFPFTFGSGTKLEIK
B2: 181C7B2 (antibody, V domains shown)
VH: QVQLKQSGPGLVQPSQSLSITCTVSGFSLTYYGVHWVRQSPGKGLEWLGVIWRGGNTDYNAAFISRLSINKDNSKSQVFFKMNSLQPNDTAIYYCARAAYYGNCFDYWGQGTTLTVSS
VL: DIVMTQSPSSLTVTAGEKVTMSCKSSQSLLNSGNQKNYLTWYQQKPGQPPKLLIYWASTRESGVPDRFTGSGSGTDFTLTISSVQAEDLAVYYCQNNYIYPLTFGAGTKLELK
B3: 248G8E8 (antibody, V domains shown)
VH: QVQLKESGPGLVAPSQSLSITCTVSGFSLTTYGVSWVRQPPGKGLEWLGVIWGDGSTNYHSTLISRLRISKDKSKSQVFLKLNSLQTDDTATYYCAKAGRGNALDYWGQGTSVTVSS
VL: B2 VL with M4L, N97D, I99S, Y100F
B4: 262C7C10 (antibody, V domains shown)
VH: QAYLQQSGAELVRSGASVKMSCKASGYTFTNYNIHWVKQTPGQGLEWIGYIYPGNGGNYYNQKFKGKATLTADTSSITAYMQISSLTSEDSAVYFCARDYYGNSFAYWGQGTLVTVSA
VL: B2 VL with S22N, V91I, N97D, I99Y
B5: 186G12H3 (antibody, V domains shown)
VH: EVMLVESGGGLVKPGGSLKLSCAASRFTLSSYAMSWVRQTPEKRLEWVATISSGGSYTYYFDSVKGRFTISRDTAKNTLNLQMSSLRSEDTAMYYCARLYYGNALDYWGQGTSVTVSS
VL: B2 VL with M21V, K109T
B6: 253E4F7 (antibody, V domains shown)
VH: EIQLQQSGPELMKPGASVKMSCKASGYSFTSYYIHWVKQSHGKSLEWIGYIDPFNGGTRYNQKFEGKATLTVDKSSTTAYMHLSSLTSEDSTVYYCASLRFLAYWGQGTLVTVSA
VL: B2 VL with S22T, L52V, Y55S, W56R, E61Q, N97D, I99S
B7: 259C6F4 (antibody, V domains shown)
VH: B4 VH with T30S, N31S, Y32H, G57D, N58T, Y59N, I77S, A106V
VL: B2 VL with T5I, V13E, T14K, T20S, N97A, I99R, Y100F, L102F
B8: 265E6G2 (antibody, V domains shown)
VH: B4 VH with N31S, I34M, N58T, Y59N, I77S
VL: B2 VL with I2L, S83N, V84I, N97D, I99S, T103P, K113R
B9: 263E9F3 (antibody, V domains shown)
VH: B6 VH with L4V, M20I, K23R, A24S, H41R, N55S, T92A, L102F
VL: B2 VL with S22T, K36E, K51E, Y55S, W56R, E61Q, A86T, N97D, I99S
B10: 262H9H6 (antibody, V domains shown)
VH: QAYLQQSGAELVRSGASVKMSCKASGYTFTSHNMHWVKQTPGQGLEWIGYISPGNGYTNYNQKFRGKATLTADTSSSTAYMQISSLTSEDSAVYFCTRDYYGNSFTYWGQGTLVTVSA
VL: B2 VL with V13E, T14K, K18R, T20S, L30F, D76E, I99W, Y100F, L102F
B11: 254A8D5 (antibody, V domains shown)
VH: EVMLVESGGGLVKPGGSLKLSCAASGFTFSSYTVSWVRQTPEKRLEWVATSIVGSTYTYFPDSVKGRFTISRDFAKNTLFLQMSSLRSEDTAMYYCSRLGRGNAMDYWGQGTSVSVSS
VL: B2 VL with M21L, S22N, K24R, E87D, N97G, I99S, L102F, A106S, L112I
B12: 260G9E8 (antibody, V domains shown)
VH: B10 VH with Y3D, T30A, S52Y, Y57G, N59K, R65T, S84T, T97A, T106A
VL: B2 VL with V13E, T14K, T20S, S22R, E87D, N97D, I99M, Y100F, L102F
B13: 259B4D4 (antibody, V domains shown)
VH: EIQLQQSGPELMKPGASVRISCKASGYSFTSYYMHWMKQSHVKSLEWIGYIDPFNGNTRYNQKFKDKATLTVDKSSTTAYMHLSSLTSEDSAVYFCASLRFFAYWGQGTLVTVSA
VL: B2 VL with K24N, T59S, S83T, N97D, I99S, Y100F, K109R
B14: 259C6F7 (antibody, V domains shown)
VH: B10 VH with T30S, M34I, S52Y, Y57D, R65K, T97A, T106V
VL: B2 VL with T5I, V13E, T14K, T20S, N97A, I99R, Y100F, L102F
B15: 257G7B9 (antibody, V domains shown)
VH: B10 VH with M34L, S52Y, Y57N, R65K, T106A
VL: B2 VL with V13E, T14K, K18R, T20S, L30F, I99W, Y100F, L102F
B16: 257B1G9 (antibody, V domains shown)
VH: B10 VH with S52Y, Y57G, R65K, T106A
VL: B2 VL with V13E, T14R, K18R, T20S, L30F, N97D, I99R, L102F
B17: 258D11C4 (antibody, V domains shown)
VH: B10 VH with T30S, S52Y, Y57G, R65K, T106A
VL: B2 VL with V13E, T14K, K18R, T20S, L30F, E61Q, N97D, I99W, Y100F, L102F
B18: 194D3B2 (antibody, V domains shown)
VH: QAYLQQSGAELVRSGASVKMSCKASGYPFTSYNMHWVKQTPGQGLEWVGYIYPGNGGTNYNQKFRDKATLTADTSSSTAYMQISRLTSDDSAVYFCLTGRGFAYWGQGTLVTVSA
VL: B2 VL with T12I, A15P, K18R, W56R, N97D, I99S, A106I
B19: 252F1B10 (antibody, V domains shown)
VH: B10 VH with S52Y, Y57G, R65K, S84N, T106A
VL: B2 VL with V13E, T14K, K18R, T20S, L30F, N97D, I99R, L102F
B20: 257G7F7 (antibody, V domains shown)
VH: B10 VH with M34L, S52Y, Y57N, R65K, T106A
VL: B2 VL with V13E, T14K, K18R, T20S, L30F, I99W, Y100F, L102F
B21: 260F8A6 (antibody, V domains shown)
VH: B10 VH with K23R, S52Y, Y57N, N59Y, R65K, S77N, S84N, T97V, T106V
VL: B2 VL with I2V, V13E, T14K, A15T, T20S, T69I, V84L, A86T, I99M, L102F
B22: 250F4G1 (antibody, V domains shown)
VH: B10 VH with S52Y, Y57R, R65K, T106A
VL: B2 VL with V13E, T14K, A15V, K18R, T20S, L30F, N97D, I99W, L102F
B23: 256C3D3 (antibody, V domains shown)
VH: B10 VH with T28A, S84G, T106A
VL: B2 VL with V13E, T14K, K18R, T20S, L30F, I99W, Y100F, L102F
B24: 194A2F7 (antibody, V domains shown)
VH: QIQLVQSGPELKKPGETVKISCKASGYTFTDYLIHWVKQAPGKGLKWMGWINTETGEPTYADDFKGRFALSLETSASTACLQINNLKNEDTATYFCARIYYGNSFDYWGQGTTLTVSS
VL: B2 VL with T12P, S22T, S28N, N37S, S62T, N97A, I99R, Y100F, L102F, K109R
B25: 257F1E11 (antibody, V domains shown)
VH: B10 VH with M34I, G42R, S52Y, Y57G, R65K, T106A
VL: B2 VL with V13E, T14K, K18R, T20S, L30F, V91I, N97D, I99W, L102F
B26: 250F4G4 (antibody, V domains shown)
VH: B10 VH with S52Y, Y57R, R65K, T106A
VL: B2 VL with V13E, T14K, A15V, K18R, T20S, L30F, N97D, I99W, L102F
B27: 252E7C9 (antibody, V domains shown)
VH: QTYLQQSGAELVRSGASVKMSCRTSGYSFTSHNMHWVKQTPGQGLEWIGYIYPGNGGSYYNQKFKGKAILTADTSSSTAYMQISSLTSEDSAVYFCTRDYYGNSFVYWGQGTLVTVSA
VL: DVVMTQSPSSLTEKTGEKVSMSCKSSQSLLNSGNQKNYLTWYQQKPGQPPKLLIYWASTRESGVPDRFTGSGSGTDFTLTISSLQTEDLAIYYCQNNFRYPFTFGAGTKLELK

Target: human Claudin18.2 (human)
Assay: cell-based or functional assay

Binder | CDC % Relative activity | CDC EC50
B1 | 3.42% | 53.6 µg/mL
B2 | 44% | 3.59 µg/mL
B3 | 114% | 1.61 µg/mL
B4 | 520% | 0.331 µg/mL
B5 | 114% | 1.39 µg/mL
B6 | 174% | 1.06 µg/mL
B7 | 125% | 1.19 µg/mL
B8 | 526% | 0.327 µg/mL
B9 | 116% | 1.48 µg/mL
B10 | 183% | 0.941 µg/mL
B11 | 154% | 1.19 µg/mL
B12 | 164% | 1.05 µg/mL
B13 | 88.2% | 1.69 µg/mL
B14 | 117% | 1.27 µg/mL
B15 | 147% | 1.01 µg/mL
B16 | 487% | 0.305 µg/mL
B17 | 142% | 1.05 µg/mL
B18 | 574% | 0.275 µg/mL
B19 | 104% | 1.76 µg/mL
B20 | 141% | 1.06 µg/mL
B21 | 129% | 1.15 µg/mL
B22 | 112% | 1.64 µg/mL
B23 | 165% | 1.11 µg/mL
B24 | 51.7% | 3.06 µg/mL
B25 | 174% | 0.855 µg/mL
B26 | 126% | 1.45 µg/mL
B27 | 154% | 1.19 µg/mL
